# Read-outs that look alike come from different tables or passages of the source.
# T1: A56-C-His (recombinant protein A56 with C-terminal His tag, produced in HEK293F cells) (vaccinia virus, UniProt P08714 17-279)
# T1 construct: also called UTTA-C-His; UTTA
# T1 chain: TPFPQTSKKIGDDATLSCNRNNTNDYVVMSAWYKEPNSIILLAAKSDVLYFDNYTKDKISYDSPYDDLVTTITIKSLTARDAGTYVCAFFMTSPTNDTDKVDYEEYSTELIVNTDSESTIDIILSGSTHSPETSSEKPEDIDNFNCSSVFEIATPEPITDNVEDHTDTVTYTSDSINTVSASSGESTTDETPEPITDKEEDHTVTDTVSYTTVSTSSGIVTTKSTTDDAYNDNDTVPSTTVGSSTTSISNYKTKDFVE
# B1: anti-A56 antibody Ab01 (antibody, V domains shown)
# VH: QMQLVQSGAEVKKPGSSVKVSCKASGGTFSSYAISWVRQAPGQGLEWMGGIIPIFGTANYAQKFQGRVTMTRDTSTSTVYMELSSLKSEDTAVYYCARFVFGSGTYLDSWGQGTLVTVSS
# VL: not shown
# notes: also called SA2026; A56-01A02
# B2: anti-A56 antibody Ab16 (antibody, V domains shown)
# VH: QVQLQQSGPGLVKPSQTLSLTCAISGDSVSSNSAAWNWIRQSPSRGLEWLGRTYYRSKWYNDYAVSVKSRITINPDTSKNQFSLQLNSVTAVDTAVYYCAKSYAGPISYYYYGLDVWGQGTTVTVSS
# VL: QSALTQPASVSGSPGQSVTISCTGTSSDIGRYNLVSWYQQHPGKAPKLMIYGGSKRPSGVSNRFSGSNSDNTASLTISGLRAEDEADYYCSSYASSSTPYVFGTGTKVTVL
# notes: also called SA2041; A56-02B08
# B3: anti-A56 antibody Ab19 (antibody, V domains shown)
# VH: QVQLVESGAEVRRPGSSVKVSCKTSGVTFSGYVLSWVRQAPGHGLEWMGRIIPLIDVENYAREFQGRMKITADKSTNTVYMELNNLRSEDTAVYYCAKSVVRGLDYYYYGFDVWGQGTTVTVSS
# VL: SYELTQPPSLSVAPGKTARITCGGNNIGSKSVHWYQQKPGQAPRLVTYYDGNRPSGIPERFSGSNSGNTATLIISRVEAGDEADYYCQVWDSSSDQGVFGTGTKVTVL
# notes: also called SA2044; A56-02C07
# B4: anti-A56 antibody Ab13 (antibody, V domains shown)
# VH: QMQLVESGAEVKKTGSSVKVSCKASGDTLTYRFLHWVRQAPGQAPEWMGWITPFNDNTNYAQKFQDRVTITRDRSMSTAYMELSSLRSEDTAVYYCATGGGNNYYGMEVWGQGTPITVSS
# VL: SYELTQPLSLSVSPGQTASITCSGDKLGDKFTSWYQQQPGQSPVLVIYQDAKRPSGIPERFSGSNSGSTATLTISGTQSMDEADYYCQAWDSSSVVFGGGTKLTVL
# notes: also called SA2038; A56-02A02
# B5: anti-A56 antibody Ab18 (antibody, V domains shown)
# VH: QVQLVESGGGLVQPGKSLRLSCAASGFTFSTYGMTWVRQAPGKGLEWVSGISGGGSSTNYADSVKGRFIISRDNSNNTLYLQMNSLRAEDTAVYYCARWGVMLSFDYWGQGTPVTVSS
# VL: DIQMTQSPSTLPASVGDRVTITCRASYSVSPWLAWYQQKPGKAPKLLIYKASTLESGVPSRFSGSGSGTEFTLTISSLQPDDFATYYCQQFNSYMMYTFGQGTKLEIK
# notes: also called SA2043; A56-02C06
# Experiments:
# [1] = molecular target: T1, A56-C-His (recombinant protein A56 with …); assay: OCTET (row 'KD (M) by OCTET'; the legend calls it SPR)
# [2] = molecular target: T1, A56-C-His (recombinant protein A56 with …)
# [3] = molecular target: T1, A56-C-His (recombinant protein A56 with …); assay: ELISA (row 'KD (M) by ELISA')
# [4] = molecular target: T1, A56-C-His (recombinant protein A56 with …); assay: ELISA on coated A56 (100 ng), fit; R square 0.9969
# [5] = molecular target: T1, A56-C-His (recombinant protein A56 with …)
# [6] = molecular target: T1, A56-C-His (recombinant protein A56 with …); assay: OCTET (row 'KD (M) by OCTET'; the legend calls it SPR)
# [7] = molecular target: T1, A56-C-His (recombinant protein A56 with …); assay: ELISA on coated A56 (100 ng), fit; R square 0.9821
# [8] = molecular target: T1, A56-C-His (recombinant protein A56 with …); assay: ELISA (row 'KD (M) by ELISA')
# [9] = molecular target: T1, A56-C-His (recombinant protein A56 with …); assay: ELISA (row 'KD (M) by ELISA')
# [10] = molecular target: T1, A56-C-His (recombinant protein A56 with …); assay: OCTET (row 'KD (M) by OCTET'; the legend calls it SPR)
# [11] = molecular target: T1, A56-C-His (recombinant protein A56 with …); assay: ELISA on coated A56 (100 ng), fit; R square 0.9953
# [12] = molecular target: T1, A56-C-His (recombinant protein A56 with …); assay: ELISA (row 'KD (M) by ELISA')
# [13] = molecular target: T1, A56-C-His (recombinant protein A56 with …); assay: ELISA on coated A56 (100 ng), fit; R square 0.9274
# [14] = molecular target: T1, A56-C-His (recombinant protein A56 with …); assay: OCTET (row 'KD (M) by OCTET'; the legend calls it SPR)
# [15] = molecular target: T1, A56-C-His (recombinant protein A56 with …); assay: as above
# [16] = molecular target: T1, A56-C-His (recombinant protein A56 with …); assay: ELISA on coated A56 (100 ng), fit; R square 0.9942
# [17] = molecular target: T1, A56-C-His (recombinant protein A56 with …); assay: ELISA (row 'KD (M) by ELISA')
Binder,kon [2] [M⁻¹ s⁻¹],Kd [5] [nM],koff [5] [s⁻¹],also measured
B1,196000,0.492,9.67e-05,Kd [1]: 0.492 nM; Kd [3]: 0.029 nM; Kd [4]: 0.029 nM
B2,246000,2.28,0.000561,Kd [6]: 0.228 nM; Kd [7]: 0.024 nM; Kd [8]: 0.024 nM
B3,56400,0.438,2.47e-05,Kd [9]: 0.044 nM; Kd [10]: 0.438 nM; Kd [11]: 0.044 nM
B4,112000,0.739,8.26e-05,Kd [12]: 0.033 nM; Kd [13]: 0.033 nM; Kd [14]: 0.739 nM
B5,100000,0.196,1.96e-05,Kd [15]: 0.196 nM; Kd [16]: 0.026 nM; Kd [17]: 0.026 nM
